Tested on: Saccharomyces cerevisiae
Assay: transcriptional activation domain activity (GFP:mCherry ratio, weighted mean of sorted bins, harmonized to initial dataset scale) (arbitrary fluorescence ratio units); higher = stronger transcriptional activation
Conditions: beta-estradiol 1 µM; induction time 4 h
In short: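 Barcoded protein tiles fused to an estradiol-inducible synthetic transcription factor were integrated at the yeast URA3 locus, in diploids carrying a GFP reporter. Cultures were diluted 1:5 into SC with 1 uM beta-estradiol, held 4 hours at 30 °C, sorted into 8 bins by GFP:mCherry ratio, and barcodes sequenced. Tiles under 50 reads were discarded. Activation activity is the read-weighted mean of bin median fluorescence, averaged across barcodes, then linearly mapped onto the initial dataset scale.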

Sequence | transcriptional activation domain activity
ICIIPFVNGFLCEPILPLFFFCSFLILSESWFIFLHWFGSWSLVIYFGSWCLF | 79700
ICIIPFVNGFLCEPILPLVFFCSSLTLSESWFIFCIGLVVGLWLYTLVAGVCF | 37300
ICIPLPFQTLVCSHIVLTPLFYPLFCTPLDIFYVSNYSCLVLVLSLPFHFFLH | 39400
ICISILLIPGDLVTVFSRIGRSEAANIAFSIVLMPSMWSGYFWISLCYLSFWT | 52700
ICLALCTVLTTLTLGVSLYFGVVLVRSDFLWQVSFRDLTWSYFVAFGAQVIVD | 41100
ICNFFYKNILGMGVLFWYQIYCGWSSTYVYNYVYLLFWNVFWTLCPVIAIGLF | 41800
ICVLEKMLLFYFYFPLPFKLTLDQHLSLFSLLCFFFRVMPYTFWLKSYPMLVL | 74200
ICYVSLCVVISMCDLLVLWRCWVIWTALDHHLAYLVTFVPVIMLLSSFVMGTF | 44100
IDDFEQFRTEYTIDLSDFQNTERLKFLEEYYWKTLNFTTPMYGADTPGSIFPE | 93300
IDFHQHESLIGTEDAFFWFLVPLIGVVCIGVCTVLHYVVLIFTHSFRLLYSLV | 26700
IDGIDLEEAGNFREIETYYRDYLSPIDRLSIISVQENNVIFQDKGNVSRENIE | 73100
IDGVWFAYCHLSLFALLGEHISLNATNSEFPLVPSQSWKWDDFLFSISFLETL | 71300
IDHTDIHAHHADAHDDSFIESEEWLSKFIMDSQIDNDLKLNINHFNDIGFNNL | 154000
IDPHGYDANGLYEIGTIVSSIAVCVANFFVVFSLYSYTWIQALVISLSILVYY | 45700
IDSEAEDASRNGKIPKGKKSKKNHCESETEEVIEKQPASTTQKSSKKKHCMRK | 19600
IDVCLRERDANDYSRQVLGHYWENGIPLSSNRIIHDLLVILRNVIARVITAAK | 42300
IEAEEAEEIGVEHLLRDIASSSGAPSSTLLTTQSLSTRVAAQLNALQGLRARL | 66900
IEDQTKYVTQAYLAATRIVTIISKLVETRHLIELPIYIRQSVTYAVLILFRLH | 56400
IEDSRRVDRGDEDKGREDHTRHRRRGSTDTGRRDERSHRDRRRSRSRSPASRR | 21900
IEGPTLSDWFRIFERAFSLRELHWVYNYEDSYAMKPDRVIVLLNLWQLVAPNV | 42800
IEHKYTTQVNVFFGIVFSELLKSNTAVRGCLMVGIARVAKSGWMSGLNHIEVF | 68500

Sequence | transcriptional activation domain activity
IEKLGITVLQREVVNNGLEISHDFRALRVALCARQPLLQVVWFKNHLPSVYYF | 69900
IEKNMYPVGTLLTLADHGFNGWLKTTLLPYLNLLHNLDVLDPELLTIFTSFIL | 54700
IELRARVFNYSNMHALKRCTFRLNRFETAFNFKLLWLFFVYYTRGIEVNRRNL | 58600
IELSRNFVNVPDFVCFFNLPDNLSVLYTLEIVYFGQLLLFHSIIYALVLIRFW | 47900
IENFLSPSFLEFIPHLANEYGFDYELVTYKWPTWLIHQKEKQRLIWGYKILFL | 56800
IETLYRLVTTHSGQDYFIQSVHHGILLLNLLYMDIPYFTEWVGLSCQLYNVIT | 27700
IFAFGYWLEESGKLLRLDLFTRFYAWGRIVLPRVGDAMIFYWENDTFGIRRGF | 69000
IFASALLVACFIHVKGVLDFSLYILKITCRADLDVDEWRSHFGMGEYVVYVGM | 61400
IFFCHGRFLTSRSFWAFLLSLFLLIAPSILFLVFTCPWLWFHMSPSIPIVFSY | 51200
IFFSQFGRYWIVFPGILFLTSVALSLILIVMLCIPGINLWTTISINLAIPYWA | 27300
IFFVLPVFFFFHPPPFVFLPPSSFLPFLLLLLLLPLVLFISPPFSPSVAFYFT | 54100
IFGSSFFLLCLFNLFFFLFFLSFLSLLFSFFLFFLFFFLFDVFTTVILSSTYG | 51800
IFHLPLECPFPLTNRRNACALIENFLDAVKYHRHLFPYWRRRAIKYFIWREWF | 32300
IFLACCAVFPGLGNLGFTLMQYRLGQRSFLSAAAENLTWVPFFFFFFGGLSVH | 78400
IFLFHINHAVFKSVVWWIGVFFFVYVLITIMPILRYDSPYYSPLSASVWFLYT | 45800
IFLHIFLLVLLRLLFLLLSLFYFLLLPHFFYNQPSLLLRLFLNFFQLSLSILL | 34100
IFNPLNWVFVQSSKVFPVDYILALLLVFDFFISSVVGIAFIGIRFLWVTLFRL | 71500
IFRVTLLLVYFWTSSIIIGVTQYIGTPLYLISKDHYYRFMAFTKQCMTLLVLS | 65400
IFSLILALIGMIILATIDVVHKIGVTYFACFLMAAGSYVPTVLVHSWHNNNNL | 50300
IFTELYFIMSSIWFSKVYYMFGFLFVCFLLMTLTCAAVTILLVYFLLCAENYH | 62000
IFTSFLLFHDPTLFMFISYDIAYVWWVHLMERLIEPLPLMCCFLIMPMICFVI | 54400

Sequence | transcriptional activation domain activity
IFVLDIIQVRCNYFFFLSFLFIWMRSMFFLCSNRLVALFLFYFSGSTLRVTIM | 51300
IFVSLLDYLATWISDDQIKCWPLNFVSRMFFYMLYFVFYRTILLFLTIEEIAV | 55200
IFVYLRIKKCCCLNKSSLLLDVRLIHKNRDTVIIFARGLVGIFKKLSLRVVEC | 51200
IGENDTVDGKRFCTFYPQYREGRVRVNLGVTRLSFRAFYICPLAFTIARYLLN | 67400
IGETDAKAKKEKKEKKGKKAQEGAVVAETVDGGEEKKKKKKSKAKGETTADSM | 35100
IGFVDFPFSSCSFLLGYFCYSVFLCFPFLFLVFFGVIYMWSSRGFLVQSFTMI | 70800
IGFYFLEYGQNCFRDDSDGPCWAGRYMVNVWNDLAVLRRLICYAAVQLARQHR | 40900
IGGFLGCLLMGHICLIILVFLCQTLVYREVTRLFTLMDSKPTLNWYFFATANY | 53000
IGIVYLLLCPFAFIFAYYFMRLRRTLIGSMPLSVINDPLLVELKVRFQLLDRG | 42000
IGKVTSAGLMSKTVRVDRPVQEWHNYLRKFYKSSKHYLVHDPANSLRTGDMIS | 69800
IGLCYVIILAIICFQRIYVQPYLYGIEAYMNREICLCWLVLLSLNLSTLQFNQ | 74300
IGLLLLSILVIYIFISFPHHTIESGHCTISFTSPIAIFYLLLLNFFLNTYLSF | 36300
IGLPGFTWVYVARYGSVFNLLGLGVIGVVWNWGLAAVSISNYGNCWERLINWR | 54300
IGLQMASFVLGGFVYFGLSFQSSNYVVLLYYEFAALSQNVYLTVAIIWRLLIF | 72300
IGLQVLLGWSYVMINPLAIYSSPYLILFSFSSLVYLVLVNVLTLPSSLPFFHP | 87600
IGMGLDAMLILSRLSRFIRIACVVFWWPGFAVFIAACKSLCLLLHFRDVRELR | 63000
IGMQLLLTWAYIRLNPFAVYSSPYIILFSFWSLGYLVLVYTLTLPSSLPFYHS | 46800
IGQFRFLQRLVLVHGRWSYRRLAETISNFFYKNMIWTFSIFWYQVFCNFDITY | 24600
IGSLLCERADVIARLVSYLLRRYAIDGFRTILLWLNDWPVGLKLNYHLASHFC | 56800
IGSYYGKHELYEEVRAQDKILYCTLVLPFVYFLMFLWIWYYLYCFRFFGFFYA | 22000
IGTSSTGDLECCLFTLLLFSWFWGLQTFLSICYYYGSFVSQAFFFFFHFFFFW | 53800

Sequence | transcriptional activation domain activity
IGVLHQVFFYKNLIWTFALLLFQIFCESNATYLFDYSLVLLFNLIFTSLPVIM | 53200
IGVRFDTSIKFINGHLERFLAYLGDPLLKQLCSGEILRRLLLLIIDPPILWND | 79200
IGWFFPFWIVLLLPLDMASSLYEGCDMLCRRPFTWVSQSFLYIAWRTIYWTSF | 59000
IGWWMVKSGLKDDLFAPGSHPRVSQYRLTAHLSTAFFCYSWMLLAGLSVLRTR | 69800
IGYFVPTTKFHGPARFGYLEYADHIFRLYEILDWRVFVGISLFLHWVFSYSHT | 39100
IHCLDSLFLLYMLTIFYLLWYSSLIFPLWCMISLYYFIVLSSTSLLGLSFISL | 71500
IHEPDQPLFSSFFSFFFVSFLSLIPPPLFPSSFPFLLFLPFLPPSLSLLSLIF | 35500
IHFFFFGGTYFFFFCQWGFGGFFFSFLTFIPFFSYIFHIFHYAVLWLWLWLWL | 59800
IHILASIPSEFWKLLILSFFEKFRSNIYHTLFYRFIYLNRGFILLLLNQLRLI | 48100
IHILHGTLQTIIAHSRAPHFLHVPCMRLPLLLLLIPPLYFEYCLLLLSPFFFA | 51200
IHISPFLSFLLFNTFLFFFDILLEYDQSGKSSCSVLWGIGWGCWWILFIGSLQ | 38800
IHLFISSFPLLFICSLPYAFLSFFPHLFISYFLSSFYSLSTHLFHSFFPFLVI | 59400
IHQASIAHHPAQHPQRKAHQHSRGGARPQHESQEATRRLGPRHPAHVAALHRR | 30500
IHRLTFFFFFCFFFFFFCLFSFSVSFFFFLFFFFLFSTSLLARRFLSLFSSVA | 50100
IHSMYRPFQMLTMDFMVMNLCLFSAILLGILYLFFGAFHLVFTVVYDFKLWQV | 43200
IHVESRLPEMRATLEPKRYVHVARFFSHLIIYFRLLHRPLPASTCNSMLRHYV | 47400
IIAAKPEVLVKEEAAVKEEVPKAAAAKPKAKGKGKGKGKGKKVAEKKPEPVAE | 22400
IIAKVIKYAKTIEELYLAYFSVKEYLLNIAIAKTCLTYLTDIKGSHSMIRYNF | 28200
IIALLLRFYDPSSGKVLVGPDDLRNLNVRSLRSHIALVTQSPVLFSGTILDNI | 42100
IIDKLGSLTFVYARRNPITIGTFAATETAILEHYGAGNIWKYILWHWVICFYS | 44400

— the supplement of paper PMC12636428
